For the test, the target named is T1, natriuretic peptide receptor GC-A (human, UniProt P16066 33-1061).
T1 sequence (looked up): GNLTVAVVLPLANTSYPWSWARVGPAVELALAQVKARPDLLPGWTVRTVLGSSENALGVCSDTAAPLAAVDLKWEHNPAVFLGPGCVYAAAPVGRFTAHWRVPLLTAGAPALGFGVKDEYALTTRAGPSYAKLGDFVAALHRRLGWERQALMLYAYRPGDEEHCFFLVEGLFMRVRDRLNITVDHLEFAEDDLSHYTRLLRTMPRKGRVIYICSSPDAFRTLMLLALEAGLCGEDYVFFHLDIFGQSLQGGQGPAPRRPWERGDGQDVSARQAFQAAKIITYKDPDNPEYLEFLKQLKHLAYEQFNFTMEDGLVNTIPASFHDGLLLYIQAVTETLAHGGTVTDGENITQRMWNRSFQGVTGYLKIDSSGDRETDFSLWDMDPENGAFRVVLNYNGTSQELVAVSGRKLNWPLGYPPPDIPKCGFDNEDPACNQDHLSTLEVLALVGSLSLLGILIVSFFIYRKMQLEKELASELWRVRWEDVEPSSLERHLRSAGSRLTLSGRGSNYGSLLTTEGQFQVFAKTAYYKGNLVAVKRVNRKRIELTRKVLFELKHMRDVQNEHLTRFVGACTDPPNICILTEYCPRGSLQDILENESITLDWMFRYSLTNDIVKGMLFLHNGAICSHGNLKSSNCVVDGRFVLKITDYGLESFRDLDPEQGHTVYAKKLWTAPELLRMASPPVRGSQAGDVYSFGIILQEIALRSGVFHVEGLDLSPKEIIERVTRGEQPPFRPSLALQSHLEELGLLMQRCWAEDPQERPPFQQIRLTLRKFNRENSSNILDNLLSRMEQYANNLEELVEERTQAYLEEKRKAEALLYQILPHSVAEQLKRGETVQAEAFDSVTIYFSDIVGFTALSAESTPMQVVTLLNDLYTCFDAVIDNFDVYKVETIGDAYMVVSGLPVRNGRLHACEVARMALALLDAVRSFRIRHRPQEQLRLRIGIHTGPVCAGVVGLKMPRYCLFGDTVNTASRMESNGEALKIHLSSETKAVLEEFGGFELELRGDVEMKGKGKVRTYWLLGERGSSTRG
The test is described as follows: cell-based or functional assay.

For the molecule SLRRSSCFGLKLDRIGAQSGLGCNSFRY [LKL-ANP (mutant in which the amino acids at positions 10 to 12 of hANP are replaced with LKL)], the “ratio of suppression of EMT induced by TGF-β1 in terms of E-cad/Ncad (A549 cells, 1 µM)” value is 52.9%.
